In patent US20220064286A1 (Genentech, published 2022) one finds IC50 data, which are given here for 1 molecule.

Some results are limits rather than exact numbers.

For assay [1], the target named is T1, cynomolgus TIGIT-AviFlag-biotin (cynomolgus monkey, UniProt A0A7N9I9V4 89-209, biotin).
T1 construct: also called cyno TIGIT-AviFlag-biotin
Kind of assay: Block ELISA Cyno PVR-Fc:Bio-TIGIT-AviFlag (blocked ligand cyno PVR-Fc). The method, then: (§1) To test for the ability of the clones to block the TIGIT-PVR interaction, a blocking ELISA assay was used. Briefly, recombinant human PVR-Fc fusion protein, cynomolgus monkey PVR-Fc fusion protein, or mouse PVR-Fc fusion protein was coated at 4 μg/ml at 25 μl/well in phosphate-buffered saline (PBS, pH 7.0) onto 384-well Maxisorp microtiter plates (NUNC, Denmark) and incubated overnight at 4° C. The coating solution was then discarded and the plate was blocked using 0.5% bovine serum albumin (BSA) in PBS at 80 μl/well and incubated with gentle agitation for 1 hour. Titration curves of anti-TIGIT and Fab isotype control antibodies were diluted in assay buffer (PBS, 0.5% BSA, 0.05% Tween 20) using 12 serial 2.5-fold dilutions (40000-1.7 ng/mL). […] The plate was then washed 6× with wash buffer and bound human TIGIT-AviFlag-biotin, cyno TIGIT-AviFlag-biotin, or mouse TIGIT-His was detected by adding 25 μl/well of horseradish peroxidase-conjugated streptavidin (1:10000, Amersham, UK) or horseradish peroxidase-conjugated mouse anti-His (1:2500, Qiagen, Germany) diluted in assay buffer. […] Absorbance was read at 450 nm on a […] ASCENT® microtiter plate reader (Thermo Labsystems, Helsinki, Finland). Fit curves were plotted from the resulting optical density values from the ELISA plates and IC50s were calculated using Genedata Screener software (Genedata, Switzerland).
For orientation: An ELISA detects its analyte on a solid surface through an enzyme-linked reagent.

The next assay concerns the target T2, mouse TIGIT-His (mouse, UniProt P86176 29-148, limits assumed).
T2 sequence (looked up): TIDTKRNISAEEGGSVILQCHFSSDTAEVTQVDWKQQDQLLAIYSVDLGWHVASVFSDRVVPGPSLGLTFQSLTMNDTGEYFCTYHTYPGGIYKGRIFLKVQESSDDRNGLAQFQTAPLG
Kind of assay: Block ELISA Mouse PVR-Fc:TIGIT-His (blocked ligand mouse PVR-Fc). On the procedure:
as §1

In assay [2] the target is T3, human TIGIT-AviFlag-biotin (human, UniProt Q495A1 22-141, biotin).
T3 sequence: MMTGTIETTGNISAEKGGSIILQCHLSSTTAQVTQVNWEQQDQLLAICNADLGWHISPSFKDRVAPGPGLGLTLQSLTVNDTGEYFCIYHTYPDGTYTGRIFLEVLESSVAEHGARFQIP
Kind of assay: Block ELISA Human PVR-Fc:Bio-TIGIT-AviFlag (blocked ligand human PVR-Fc). On the procedure:
as §1

T1 sequence (A0A7N9I9V4 entry or part of it): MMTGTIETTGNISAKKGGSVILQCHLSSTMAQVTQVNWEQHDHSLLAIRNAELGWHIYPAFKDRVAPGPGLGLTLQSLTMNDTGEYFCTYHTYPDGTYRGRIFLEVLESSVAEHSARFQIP

B1: 4.1D3.Q1E (antibody, V domains shown)
VH: EVQLQQSGPGLVKPSQTLSLTCAISGDSVSSNSAAWNWIRQSPSRGLEWLGKTYYRFKWYSDYAVSVKGRITINPDTSKNQFSLQLNSVTPEDTAVFYCTRESTTYDLLAGPFDYWGQGTLVTVSS
VL: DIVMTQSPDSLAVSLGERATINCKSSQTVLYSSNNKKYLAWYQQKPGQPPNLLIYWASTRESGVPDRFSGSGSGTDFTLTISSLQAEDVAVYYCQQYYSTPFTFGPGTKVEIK
One may read the IC50 as the concentration at which inhibition is half-maximal. A high value points to a need for much substance. On to B1, for which the results for the IC50 (in assay [1]; in the assay with mouse TIGIT-His; in assay [2]) were 2.6 nM, over 133 nM and 6.9 nM, respectively.
